# Source: article PMC12653191 (Journal of Fungi, 2025)
# B1: Candida glabrata Gpi14 (enzyme, C. glabrata ATCC 2001, UniProt Q6FXQ5 1-431, looked up)
# chain: MFKLGTIGLLSLAVLLRIAFFLFGVYQDEHFTVKYTDIDYQVFNDAAWFVAHRKSPYNRDTYRYTPLLSWLLLPNHMIPWFHFGKLIFVLCDLATGVLILQMLKKLKSKYRYGTDRMTIMAAIWLLNPMVITISTRGNAESVLCFLILSFLYCFLCEQYLLGGLLFGLSIHFKIYPIIYALPIAIYVAAAHYNKTQSVFKSSFKLFLVGFSTLIVLILLTVFMYMLYGDKFIDQTYLYHIYRTDHRHNFSVWNMLLYFNSALPKTSELSKFVFLPQMIIVLAISLTQLRRPSSFPLLCNVLFLETFAFVTFNKVCTSQYFIWYLIFLPFVLYNTRISMRRGIVMLVVWVATQALWLRQGYLLEFEGQNVFYPGLFCASVGFFVSNAWILGQFIEDTIIQNDYVYRIEPSESRSKDSAVIDKPAIAKTEKAE
# notes: Gpi14, GPI mannosyltransferase I catalytic subunit, Candida glabrata ATCC 2001, UniProt Q6FXQ5, full length (431 amino acids); residues 2-408 are modelled in the structure; also called catalytic subunit of GPI-MT-I; source: S. cerevisiae INVSc1, co-expressed with Pbn1, purified (Strep-Tactin via Pbn1, SEC)
# Target: T1, Candida glabrata Pbn1 (C. glabrata ATCC 2001, UniProt Q6FX62 1-416, N-glycosylation at N35, N319 and N365)
# T1 construct: Pbn1, auxiliary subunit of GPI mannosyltransferase I, Candida glabrata ATCC 2001, UniProt Q6FX62, full length (416 amino acids); residues 2-408 are modelled in the structure; also called auxiliary subunit of GPI-MT-I; source: S. cerevisiae INVSc1, co-expressed with Gpi14, purified (Strep-Tactin, SEC); not shown: Twin-Strep II, N-terminal, kept
# T1 sequence (looked up): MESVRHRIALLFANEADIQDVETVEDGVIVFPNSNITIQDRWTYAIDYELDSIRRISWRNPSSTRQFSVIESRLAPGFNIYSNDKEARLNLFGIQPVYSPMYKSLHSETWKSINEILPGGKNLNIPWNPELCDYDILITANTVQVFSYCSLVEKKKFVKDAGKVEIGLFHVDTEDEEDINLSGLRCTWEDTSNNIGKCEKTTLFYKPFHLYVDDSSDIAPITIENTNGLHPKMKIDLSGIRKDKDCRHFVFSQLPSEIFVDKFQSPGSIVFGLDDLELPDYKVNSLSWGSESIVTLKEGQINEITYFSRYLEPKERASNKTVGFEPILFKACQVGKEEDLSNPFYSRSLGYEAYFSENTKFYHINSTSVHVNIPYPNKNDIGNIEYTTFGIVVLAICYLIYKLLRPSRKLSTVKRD
# Assay: cryo-EM structure; Gpi14-Pbn1 complex co-expressed in S. cerevisiae, purified by Strep-Tactin on Pbn1 and SEC in 20 mM Hepes pH 7.4, 150 mM NaCl, 0.02% GDN; ~22 mg/mL; endogenous Dol-P-Man bound
# Details: both partners purified
binder,measurement,value
B1,stoichiometry N,1
